This is an account of results in patent publication US20240368279A1 (SHANGHAI SINOBAY BIOTECHNOLOGY, published 2024).

The target in this experiment is human CD47 protein (antigen of the SPR affinity determination) (human, UniProt Q08722 19-139, limits assumed). Briefly: affinity for a human CD47 protein (method not given; SPR in Example 3).

B1: Hu004-65 antibody (full-length human IgG1, kappa) (antibody, V domains shown)
VH: EVQLVESGGGLVQPGGSLRLSCAASGFTFSGYGMSWVRQAPGKGLEWVATITSGGTYTYYPDSVKGRFTISRDNAKNSLYLQMNSLRAEDTAVYYCARSLAGNAMDYWGQGTLVTVSS
VL: DIQMTQSPSSLSASVGDRVTITCRASQSITKSLNWYQQKPGKAPRLLIRVASTLQSGVPSRFSGSGSGTDFTLTISSLQPEDFATYYCQHSYSFGQGTKLEIT
notes: also called candidate antibody Hu004-65; monoclonal antibody Hu004-65
As for B1, the Kd was 146 nM.

B2: Hu004-101 antibody (full-length human IgG1, kappa) (antibody, V domains shown)
VH: EVQLVESGGGLVQPGGSLRLSCAASGFTFSGYGMSWVRQAPGKGLEWVATITSGGTYTYYPDSVKGRFTISRDNAKNSLYLQMNSLRAEDTAVYYCARSLAGNAMDYWGQGTLVTVSS
VL: DIQMTQSPSTLSASVGDRVTITCRASQSISNWLAWYQQKPGEAPKLLIYKASNLESGVPSRFSGSGSGTEFTLTISSLQPDDFATYYCQQFGTFGQGTKVEIK
The molecule B2 yielded a Kd of 320 nM.

Usually Kd stands for the constant that tells how readily two partners part at equilibrium. Low readings indicate tighter binding, high ones weaker binding.
